We go through 2 substances from PMC6973308.

Assay [1] concerns the target anti-HER2 (trastuzumab) heavy chain, produced alone. Description: HPLC-MS.
Assay [2] has the same target. Description: SDS-PAGE.
The target is the same in assay [3]. Description: SEC.
The target in assay [4] is anti-HER2 (trastuzumab) light chain, produced alone. Description: SEC.
For assay [5] the target is unchanged. Description: SDS-PAGE.

As for “anti-HER2 (trastuzumab) heavy chain, produced alone (domain or fragment)”, the stoichiometry N in assay [1] and in assay [2] was 2 throughout.
With “anti-HER2 (trastuzumab) light chain, produced alone (domain or fragment)”, the % Area of monomer mAb (SEC-HPLC) in assay [3] turned out to be 90.1 % Area. This substance also came in with a stoichiometry N in assay [4] of 2. For the same substance, the percent of LC dimers covalently bonded (42 KDa band) in assay [5] came to 55%.
